Experimental data as given in paper PMC6855506.

Key:
[1] = target: T1, AphA (Vibrio cholerae) (UniProt Q9X399); test: EMSA; settings: 40 mM Tris acetate pH 7.9, 50 mM KCl, 5 mM MgCl2, 500 uM DTT, 12.5 ug/ml herring sperm DNA; EMSA 15 min at 37 C
T1 sequence: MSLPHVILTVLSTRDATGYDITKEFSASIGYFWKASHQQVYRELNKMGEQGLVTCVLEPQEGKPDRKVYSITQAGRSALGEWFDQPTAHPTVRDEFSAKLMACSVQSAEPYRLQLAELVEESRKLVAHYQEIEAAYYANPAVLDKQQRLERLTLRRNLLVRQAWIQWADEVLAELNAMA

[2] = target: T2, CRP (Vibrio cholerae) (UniProt O34015); test: EMSA; settings: 40 mM Tris acetate pH 7.9, 50 mM KCl, 5 mM MgCl2, 500 uM DTT, 12.5 ug/ml herring sperm DNA; EMSA 15 min at 37 C
T2 sequence: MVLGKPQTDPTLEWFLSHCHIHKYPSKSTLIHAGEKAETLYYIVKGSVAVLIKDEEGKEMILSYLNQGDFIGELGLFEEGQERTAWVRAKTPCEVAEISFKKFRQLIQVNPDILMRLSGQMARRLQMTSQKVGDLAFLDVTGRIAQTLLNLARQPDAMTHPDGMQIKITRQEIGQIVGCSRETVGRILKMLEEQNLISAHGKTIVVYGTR

| Sequence | binding [1] | binding [2] |
| --- | --- | --- |
| AATTCCATTTCCCAAAATCCTTTGCAAACCGTGAGAGGATGATGAATCAACTTGCATAGATGCTAACAGCTATCAAAAATGGCGTTGTTTTATAAAGAGAAGTAATGGAAATGA / AGCTTCATTTCCATTACTTCTCTTTATAAAACAACGCCATTTTTGATAGCTGTTAGCATCTATGCAAGTTGATTCATCATCCTCTCACGGTTTGCAAAGGATTTTGGGAAATGG [VC0857-VC0858 intergenic region] | binds | – |
| AATTCTAGAGGAGCAACAAAAAATTGACGCTGTGATACTGGTCTCATAATCTGGCGCAAAAGTATTGCATCGATGTGAGATAAGTCCAGACTTATTTCTCTTCGTAAACTATCATTAGCTTCATAAAACAAGCA / AGCTTGCTTGTTTTATGAAGCTAATGATAGTTTACGAAGAGAAATAAGTCTGGACTTATCTCACATCGATGCAATACTTTTGCGCCAGATTATGAGACCAGTATCACAGCGTCAATTTTTTGTTGCTCCTCTAG [tfoX promoter wild type] | binds | binds |
